B1: BCY17646 (peptide)
peptide: ACLPLGARCNWTRVCA
modifications: Ci, Cii and Ciii cysteines covalently bound to TATA scaffold
B2: BCY17652 (peptide)
peptide: ACLAPGQRCNWTRVCA
modifications: Ci, Cii and Ciii cysteines covalently bound to TATA scaffold
B3: BCY16580 (peptide)
peptide: ACAWDEYYQVCLPCA
modifications: Ci, Cii and Ciii cysteines covalently bound to TATA scaffold
B4: BCY19458 (peptide)
peptide: ACTNLQWADCYINHVCA
modifications: Ci, Cii and Ciii cysteines covalently bound to TATA scaffold
B5: BCY17650 (peptide)
peptide: ACLEAGQRCQWQRECA
modifications: Ci, Cii and Ciii cysteines covalently bound to TATA scaffold
B6: BCY17647 (peptide)
peptide: ACLPLGARCQWSRTCA
modifications: Ci, Cii and Ciii cysteines covalently bound to TATA scaffold
B7: BCY16577 (peptide)
peptide: ACSEEYMFCNNRYVVCA
modifications: Ci, Cii and Ciii cysteines covalently bound to TATA scaffold
B8: BCY17649 (peptide)
peptide: ACLEAGQRCNWTRVCA
modifications: Ci, Cii and Ciii cysteines covalently bound to TATA scaffold
B9: BCY19570 (peptide)
peptide: ACTNLDWAYCYIHNQCA
modifications: Ci, Cii and Ciii cysteines covalently bound to TATA scaffold
B10: BCY18172 (peptide)
peptide: ACTNLQWAMCYITGNCA
modifications: Ci, Cii and Ciii cysteines covalently bound to TATA scaffold
B11: BCY19572 (peptide)
peptide: ACTNLEWADCYINHNCA
modifications: Ci, Cii and Ciii cysteines covalently bound to TATA scaffold
B12: BCY19573 (peptide)
peptide: ACTNLEWANCYINHNCA
modifications: Ci, Cii and Ciii cysteines covalently bound to TATA scaffold
B13: BCY17648 (peptide)
peptide: ACLPLGARCQWQRECA
modifications: Ci, Cii and Ciii cysteines covalently bound to TATA scaffold
B14: BCY17644 (peptide)
peptide: ACLEAGQRCQWGRTCA
modifications: Ci, Cii and Ciii cysteines covalently bound to TATA scaffold
B15: BCY17651 (peptide)
peptide: ACLEAGQRCQWSRTCA
modifications: Ci, Cii and Ciii cysteines covalently bound to TATA scaffold
B16: BCY19567 (peptide)
peptide: ACHVDVCLITGVNIPCA
modifications: Ci, Cii and Ciii cysteines covalently bound to TATA scaffold
B17: BCY16568 (peptide)
peptide: ACTNRNFCQNRYSVTCA
modifications: Ci, Cii and Ciii cysteines covalently bound to TBCU scaffold
B18: BCY19566 (peptide)
peptide: ACSVDVCAITGVHIPCA
modifications: Ci, Cii and Ciii cysteines covalently bound to TATA scaffold
B19: BCY17645 (peptide)
peptide: ACLAPGQRCQWGRTCA
modifications: Ci, Cii and Ciii cysteines covalently bound to TATA scaffold
B20: BCY17643 (peptide)
peptide: ACENFQLGCRITYKCA
modifications: Ci, Cii and Ciii cysteines covalently bound to TATA scaffold
B21: BCY19571 (peptide)
peptide: ACTNLEWAYCYIHNECA
modifications: Ci, Cii and Ciii cysteines covalently bound to TATA scaffold
B22: BCY17653 (peptide)
peptide: ACLAPGQRCQWQRECA
modifications: Ci, Cii and Ciii cysteines covalently bound to TATA scaffold
B23: BCY16579 (peptide)
peptide: ACRVTLDACWDTPCA
modifications: Ci, Cii and Ciii cysteines covalently bound to TATA scaffold
B24: BCY17642 (peptide)
peptide: ACDDWMIGCRITYKCA
modifications: Ci, Cii and Ciii cysteines covalently bound to TATA scaffold
B25: BCY19568 (peptide)
peptide: ACTVDVCAITGVQIPCA
modifications: Ci, Cii and Ciii cysteines covalently bound to TATA scaffold
B26: BCY16578 (peptide)
peptide: ACSRANNYCDWWKCA
modifications: Ci, Cii and Ciii cysteines covalently bound to TBCU scaffold

Kd data for 26 molecules are collected here from patent US20240083945A1 (Bicycle, published 2024).

In this experiment the target is T1, COVID-19 nucleocapsid protein (N-protein) (severe acute respiratory syndrome …, UniProt P0DTC9 1-419).
T1 construct: also called nucleocapsid protein (N-protein) of severe acute respiratory syndrome coronavirus 2 (SARS-CoV-2)
As to the kind of experiment: bio-layer interferometry (BLI).
For the molecule B1, the Kd turned out to be 198 nM.

B2 showed a Kd of 142 nM.

In turn, B3 registered a Kd of 6680 nM.

Take B4: the dissociation constant (Kd) amounted to 2290 nM.

For the molecule B5, the Kd worked out at 1990 nM. The Kd values of the last two molecules are within 1.5-fold of each other.

As for B6, the Kd stood at 548 nM.

For the molecule B7, binding was characterised by a dissociation constant (Kd) of 934 nM.

B8 yielded a Kd of 596 nM.

Consider B9, for which the Kd came out at 978 nM.

Molecule B10 came in with a Kd of 2740 nM.

B11 gave a Kd of 1000 nM.

Regarding B12, the Kd is 1190 nM.

Regarding B13, binding was characterised by a dissociation constant (Kd) of 1860 nM.

B14 registered a Kd of 675 nM.

Take B15: binding was put at a Kd of 686 nM.

B16 gave a Kd of 2250 nM.

The molecule B17 showed a Kd of 8160 nM.

The molecule B18 had a Kd of 3260 nM.

B19: binding was characterised by a dissociation constant (Kd) of 227 nM.

Molecule B20 yielded a Kd of 4230 nM.

As to B21, binding was put at a Kd of 958 nM.

B22 returned a Kd of 799 nM.

In turn, B23 registered a Kd of 759 nM.

For the molecule B24, the Kd amounted to 3940 nM.

As for B25, the Kd was found to be 1870 nM.

In the case of B26, the Kd worked out at 22300 nM.
